# T1: PPARγ2 (Homo sapiens, UniProt P37231)
# T1 sequence (P37231 1-505): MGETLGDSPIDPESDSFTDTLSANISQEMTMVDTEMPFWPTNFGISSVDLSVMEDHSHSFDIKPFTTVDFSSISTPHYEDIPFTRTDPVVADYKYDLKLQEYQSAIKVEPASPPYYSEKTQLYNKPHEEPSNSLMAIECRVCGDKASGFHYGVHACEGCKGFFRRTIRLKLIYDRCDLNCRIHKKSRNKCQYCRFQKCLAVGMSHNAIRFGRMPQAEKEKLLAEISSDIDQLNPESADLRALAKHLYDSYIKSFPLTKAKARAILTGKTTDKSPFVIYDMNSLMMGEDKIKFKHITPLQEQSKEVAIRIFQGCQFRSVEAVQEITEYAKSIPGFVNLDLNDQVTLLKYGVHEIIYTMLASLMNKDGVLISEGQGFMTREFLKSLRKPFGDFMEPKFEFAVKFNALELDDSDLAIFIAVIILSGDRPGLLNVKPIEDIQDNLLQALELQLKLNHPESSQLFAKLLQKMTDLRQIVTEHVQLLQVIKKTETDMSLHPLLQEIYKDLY
# B1: sLZIP: human small leucine-zipper protein, isoform of LZIP, 354 amino acids, no transmembrane domain; GenBank FJ263669, SEQ ID NO: 1 (protein, listed as Homo sapiens)
# chain: MELELDAGDQDLLAFLLEESGDLGTAPDEAVRAPLDWALPLSEVPSDWEVDDLLCSLLSPPASLNILSSSNPCLVHHDHTYSLPRETVSMDLESESCRKEGTQMTPQHMEELAEQEIARLVLTDEEKSLLEKEGLILPETLPLTKTEEQILKRVRRKIRNKRSAQESRRKKKVYVGGLESRVLKYTAQNMELQNKVQLLEEQNLSLLDQLRKLQAMVIEISNKTSSSSMYSSDTRGSLPAEHGVLSRQLRALPSEDPYQLELPALQSEVPKDSTHQWLDGSDCVLQAPGNTSCLLHYMPQAPSAEPPLEWPFPDLFSEPLCRGPILPLQANLTRKGGWLPTGSPSVILQDRYSG
# Legend:
# [1] = system: primary preadipocytes and mouse embryonic fibroblasts (MEFs); assay: Adipocyte differentiation of primary preadipocytes and MEFs isolated from sLZIP TG mice; format: cell-based; conditions: cells isolated from sLZIP TG mice vs wild type mice
# Description: In order to generate human sLZIP transgenic (TG) mice, sLZIP genes were cloned into a pCMV-flag expression vector. The sLZIP TG mice were generated by Macrogen, Inc (Seoul, Korea). Transgenic founders were mated with wild type C57BL/6 mice to produce F1 heterozygotes. F1-F4 generations were genetically screened for transgenes at an age of 2 weeks old. The following two primers were used to amplify genomic DNA in order to identify wild type and TG mice: [NT] and 5'-[NT]3.' Adipocyte differentiation is a well-regulated procedure. PPARγ2 is a major regulator of adipogenesis, is highly expressed during adipocyte differentiation, and regulates expression of genes involved in adipogenesis. An effect of sLZIP on adipogenesis in vivo was examined. For this purpose, in order to produce human sLZIP transgenic mice, sLZIP genes were cloned in a pCMV-flag expression vector. The sLZIP TG mice were produced in Macrogen, Inc (Seoul, Korea) (FIG. 8A). Preadipocytes were isolated from epididymal adipose tissues of sLZIP TG mice. […] A promoter activity was measured according to luciferase analysis (FIG. 8B). […] Total RNA was extracted from the cells, and an mRNA expression level of mouse LZIPs was measured using RT-PCR analysis. […] Total RNA was isolated from the cells, and an mRNA expression level of mouse LZIPs was measured using RT-PCR (FIG. 9C) and real-time PCR (FIG. 9D).
# [2] = molecular target: T1, PPARγ2; assay: Fluorescence microscopy, subcellular localization of sLZIP and PPARγ2 in C3H10T1/2 cells; format: cell-based; conditions: GFP-PPARγ2 and Flag-sLZIP
# Method: C3H10T1/2 cells were transiently ci-transfected with Flag-sLZIP, GFP-PPARγ2 or GFP-sLZIP, and HDAC3 was grown on cover slip. After 24 hours, the cells were fixed with 4% paraformaldehyde for 10 minutes and permeabilized 0.2% Triton-X 100 for 5 minutes. The cells were incubated with 1% BSA for one hour, and then incubated with anti-Flag and anti-HDAC3 antibodies overnight at 4° C. The cells were washed with PBS, and then were incubated with Texas Red-labeled antibodies for 2 hours. A cover slide was washed with PBS, and mounted on and examined using a LSM 510 META confocal microscopy (Carl Zeiss, Jena, Germany).
# In order to examine whether the transcriptional activity of PPARγ2 is regulated by interaction with sLZIP, interaction between sLZIP and PPARγ2 was examined. For this purpose, 293T cells were transfected with GST-sLZIP and Myc-PPARγ2. Cell lysates were obtained and GST pull-down analysis was performed using a glutathione 4B bead. A protein complex was analyzed in SDS-PAGE and then immunoblotted with specific antibodies (FIG. 2A). […] Proteins bound to the bead were analyzed in SDS-PAGE, and then immunoblotted with anti-PPARγ2 and anti-His antibodies (FIG. 2C). GFP-PPARγ2 and Flag-sLZIP constructs were expressed in C3H10T1/2 cells, and analyzed using mouse anti-Flag and Texas Red-labeled anti-mouse antibodies under a fluorescence microscope. […]
molecule,measurement,setting,value
B1,adipocyte differentiation,[1],inhibited more than in wild type mice
same,subcellular localization of sLZIP and PPARγ2,[2],localized in the nucleus together with PPARγ2

# From US10058586B2, “Use of human small leucine zipper protein in adipocyte differentiation procedure” (Korea University Research and Business Foundation, priority 2013, dated 2018)
